Experiment [1] concerns the target soluble human FcγRIIA, biotinylated, tetramerized with streptavidin-PE (UniProt P12318). Nature of the experiment: multiplex assay: antigen-conjugated beads stained with tetramerized receptor. To be noted: highest antibody concentration point, log10 Ab (nM) about 1.6 (estimated); parent: est. 4.1; read off a plot.
Experiment [2] concerns the target soluble human FcγRIIIB, biotinylated, tetramerized with streptavidin-PE (UniProt O75015). The experiment is described as above. The settings on record: highest antibody concentration point, log10 Ab (nM) about 1.6 (estimated); parent: est. 3.3; read off a plot.
In experiment [3] the target is HIV-1_(YU-2) gp140 trimer. The experiment is described as follows: BLI (kinetic KD, value in parentheses).
Experiment [4] has as its target HIV-1_(YU-2) gp140 trimer. The experiment is described as follows: BLI (equilibrium KD).
The target in experiment [5] is soluble human FcγRIIB, biotinylated, tetramerized with streptavidin-PE (UniProt P31994). The experiment is described as follows: multiplex assay: antigen-conjugated beads stained with tetramerized receptor. To be noted: highest antibody concentration point, log10 Ab (nM) about 1.6 (estimated); parent: est. 3.4; read off a plot.
Experiment [6] has as its target soluble human FcγRIIIA, biotinylated, tetramerized with streptavidin-PE (UniProt P08637). The description is as above. The settings on record: highest antibody concentration point, log10 Ab (nM) about 1.6 (estimated); parent: est. 4.3; read off a plot.

The text below walks through data of article PMC8510540.

Chain of soluble human FcγRIIIB, biotinylated, tetramerized with streptavidin-PE (O75015 17-200): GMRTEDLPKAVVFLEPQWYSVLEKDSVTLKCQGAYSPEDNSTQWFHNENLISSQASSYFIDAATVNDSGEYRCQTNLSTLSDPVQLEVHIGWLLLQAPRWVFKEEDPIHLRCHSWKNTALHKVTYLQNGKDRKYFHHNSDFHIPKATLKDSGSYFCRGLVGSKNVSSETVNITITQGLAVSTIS
Chain of soluble human FcγRIIA, biotinylated, tetramerized with streptavidin-PE (P12318 34-217): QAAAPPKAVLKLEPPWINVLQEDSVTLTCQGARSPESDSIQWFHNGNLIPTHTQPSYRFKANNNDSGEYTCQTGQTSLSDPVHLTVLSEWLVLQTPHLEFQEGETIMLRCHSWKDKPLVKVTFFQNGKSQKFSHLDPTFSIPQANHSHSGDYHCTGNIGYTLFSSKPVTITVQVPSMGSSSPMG
Chain of soluble human FcγRIIB, biotinylated, tetramerized with streptavidin-PE (P31994 43-217): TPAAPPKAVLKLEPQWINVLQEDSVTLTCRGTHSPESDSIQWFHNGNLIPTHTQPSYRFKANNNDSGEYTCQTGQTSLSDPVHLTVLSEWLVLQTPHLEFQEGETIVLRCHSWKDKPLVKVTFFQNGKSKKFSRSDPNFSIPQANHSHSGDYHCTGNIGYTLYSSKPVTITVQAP
Chain of soluble human FcγRIIIA, biotinylated, tetramerized with streptavidin-PE (P08637 17-208): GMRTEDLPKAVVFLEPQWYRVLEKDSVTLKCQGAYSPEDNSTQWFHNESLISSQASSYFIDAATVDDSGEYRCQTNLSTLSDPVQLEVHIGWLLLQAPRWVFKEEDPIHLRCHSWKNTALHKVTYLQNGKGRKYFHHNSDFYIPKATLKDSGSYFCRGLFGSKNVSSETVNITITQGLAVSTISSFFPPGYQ

Take “IgG1 b12 (unmodified Fc) (from UniProt P01857) E430G”: the response in experiment [1] was 4 log10 MFI; in experiment [2], 3.1 log10 MFI. For the same substance, the Kd (commonly the concentration at which binding is half-saturated) in experiment [3] stood at 2.26 nM; in experiment [4], 0.9 nM.

Regarding “IgG1 b12 (unmodified Fc) (from UniProt P01857) G236A; S267E; H268F; S324T; I332E”, the response in experiment [1] is 4.3 log10 MFI; in experiment [5], 4.3 log10 MFI; in experiment [2], 3.2 log10 MFI. The Kd in experiment [3] was determined as 2.78 nM; in experiment [4], 1.93 nM.

Turning to “IgG1 b12 (unmodified Fc) (from UniProt P01857) K322A”, the figures for the equilibrium dissociation constant (Kd) in experiment [3] and in experiment [4] were 2.56 nM and 2.95 nM, respectively.

For “IgG1 b12 (unmodified Fc) (from UniProt P01857) L234A; L235A”, the response in experiment [1] is 2 log10 MFI; in experiment [5] it was 2 log10 MFI; in experiment [2] it was 2 log10 MFI; in experiment [6], 3.4 log10 MFI. Also, the values for the dissociation constant (Kd) in experiment [3] and in experiment [4] were 2.06 nM and 2.04 nM, respectively.
